Results as given in patent US20100260776A1.

Molecular target: KDR (VEGF receptor, flk-1/KDR, VEGFR2) (human) (UniProt P35968)
Assay: in vitro receptor saturation; format not stated

concentration at 50% saturation of VEGF receptors: 0.2 µg/mL | concentration at 100% saturation of VEGF receptors: 3 µg/mL
Substance: IMC-1C11 (antibody)
